Measured values: patent US9624482B2, “Thermophilic cellobiohydrolase” (Sandia Corporation, priority 2009, dated 2017)
Entries after “also recorded” stand apart in the source; their conditions may differ.

B1: CBH protein: Protein encoded by the YP_001179883 gene of Caldicellulosiruptor saccharolyticus, domains GH10, CBM3, GH5 (SEQ ID NO:2) (protein, listed as Caldicellulosiruptor saccharolyticus)
chain: MKRNLFRIVSRVVLIAFIASISLVGAMSYFPVETQAAPDWSIPSLCESYKDDFMIGVAIPARCLSNDTDKRMVLKHFNSITAENEMKPESLLAGQTSTGLSYRFSTADAFVDFASTNKIGIRGHTLVWHNQTPDWFFKDSNGQRLSKDALLARLKQYIYDVVGRYKGKVYAWDVVNEAIDENQPDSYRRSTWYEICGPEYIEKAFIWAHEADPNAKLFYNDYNTEISKKRDFIYNMVKNLKSKGIPIHGIGMQCHINVNWPSVSEIENSIKLFSSIPGIEIHITELDMSLYNYGSSENYSTPPQDLLQKQSQKYKEIFTMLKKYKNVVKSVTFWGLKDDYSWLRSFYGKNDWPLLFFEDYSAKPAYWAVLEASGVTTSSPTPTPTPTVTVTPTPTPTPTPTVTATPTPTPTPVSTPATGGQIKVLYANKETNSTTNTIRPWLKVVNSGSSSIDLSRVTIRYWYTVDGERAQSAVSDWAQIGASNVTFKFVKLSSSVSGADYYLEIGFKSGAGQLQPGKDTGEIQIRFNKSDWSNYNQGNDWSWLQSMTSYGENEKVTAYIDGVLVWGQEPSGATPAPTMTVAPTATPTPTLSPTVTPTPAPTQTAIPTPTLTPNPTPTSSIPDDTNDDWLYVSGNKIVDKDGRPVWLTGINWFGYNTGTNVFDGVWSCNLKDTLAEIANRGFNLLRVPISAELILNWSQGIYPKPNINYYVNPELEGKNSLEVFDIVVQTCKEVGLKIMLDIHSIKTDAMGHIYPVWYDEKFTPEDFYKACEWITNRYKNDDTIIAFDLKNEPHGKPWQDTTFAKWDNSTDINNWKYAAETCAKRILNINFNLLIVIEGIEAYPKDDVTWTSKSSSDYYSTWWGGNLRGVRKYPINLGKYQNKVVYSPHDYGPSVYQQPWFYPGFTKESLLQDCWRPNWAYIMEENIAPLLIGEWGGHLDGADNEKWMKYLRDYIIENHIHHTFWCFNANSGDTGGLVGYDFTTWDEKKYSFLKPALWQDSQGRFVGLDHKRPLGTNGKNINITTYYNNNEPEPVPASK
B2: Caldicellulosiruptor saccharolyticus (Csac) GH5 cellobiohydrolase domain, construct C (CsacF7-4), amino acids 507-1039 of Csac CBH, SEQ ID NO:3 … (protein)
chain: MFKSGAGQLQPGKDTGEIQIRFNKSDWSNYNQGNDWSWLQSMTSYGENEKVTAYIDGVLVWGQEPSGATPAPTMTVAPTATPTPTLSPTVTPTPAPTQTAIPTPTLTPNPTPTSSIPDDTNDDWLYVSGNKIVDKDGRPVWLTGINWFGYNTGTNVFDGVWSCNLKDTLAEIANRGFNLLRVPISAELILNWSQGIYPKPNINYYVNPELEGKNSLEVFDIVVQTCKEVGLKIMLDIHSIKTDAMGHIYPVWYDEKFTPEDFYKACEWITNRYKNDDTIIAFDLKNEPHGKPWQDTTFAKWDNSTDINNWKYAAETCAKRILNINPNLLIVIEGLEAYPKDDVTWTSKSSSDYYSTWWGGNLRGVRKYPINLGKYQNKVVYSPHDYGPSVYQQPWFYPGFTKESLLQDCWRPNWAYLMEENIAPLLIGEWGGHLDGADNEKWMKYLRDYIIENHIHHTFWCFNANSGDTGGLVGYDFTTWDEKKYSFLKPALWQDSQGRFVGLDHKRPLGTNGKNINITTYYNNNEPEPVPASK
notes: C-terminal V5 and His6 tags (pDEST42); E. coli BL21(DE3) Star; purified
B3: Caldicellulosiruptor saccharolyticus (Csac) CBM3-GH5 cellobiohydrolase, construct E (CsacF7-6), amino acids 374-1039 of Csac CBH, SEQ ID NO:4 … (protein)
chain: MGVTTSSPTPTPTPTVTVTPTPTPTPTPTVTATPTPTPTPVSTPATGGQIKVLYANKETNSTTNTIRPWLKVVNSGSSSIDLSRVTIRYWYTVDGERAQSAVSDWAQIGASNVTFKFVKLSSSVSGADYYLEIGFKSGAGQLQPGKDTGEIQIRFNKSDWSNYNQGNDWSWLQSMTSYGENEKVTAYIDGVLVWGQEPSGATPAPTMTVAPTATPTPTLSPTVTPTPAPTQTAIPTPTLTPNPTPTSSIPDDTNDDWLYVSGNKIVDKDGRPVWLTGINWFGYNTGTNVFDGVWSCNLKDTLAEIANRGFNLLRVPISAELILNWSQGIYPKPNINYYVNPELEGKNSLEVFDIVVQTCKEVGLKIMLDIHSIKTDAMGHIYPVWYDEKFTPEDFYKACEWITNRYKNDDTIIAFDLKNEPHGKPWQDTTFAKWDNSTDINNWKYAAETCAKRILNINPNLLIVIEGLEAYPKDDVTWTSKSSSDYVSTWWGGNLRGVRKYPINLGKYQNKVVYSPHDYGPSVYQQPWFYPGFTKELLQDCWRPNWAYLMEENIAPLLIGEWGGHLDGADNEKWMKYLRDYIIENHIHHTFWCFNANSGDTGGLVGYDFTTWDEKKYSFLKPALWQDSQGRFVGLDHKRPLGTNGKNINITTYYNNNEPEPVPASK
notes: as for B2

Experiments:
GH5 = GH5 (Caldicellulosiruptor saccharolyticus, UniProt A4XIF7); assay: Product inhibition by cellobiose of pNPC hydrolysis; format: biochemical; conditions: 5 mM pNPC, optimal condition; read-out: IC50 of cellobiose on CBH activity
Experimental: (§1) To examine the catalytic activity of GH5 in detail, the hydrolysis of nitrophenol from 4-nitrophenyl-β-D-cellobioside (pNPC) and 4-nitrophenyl-β-D-glucopyranoside (pNPG) are measured. Under the optimum reaction condition that is previously found (80° C. and pH 5.5), pNPC was hydrolyzed by both CBM3-GH5 and GH5. […] The product inhibition by cellobiose is examined by adding unlabeled cellobiose into reaction mixtures containing 5 mM of pNPC. The IC50 inhibition constant for cellobiose on the catalytic activity of GH5 is found at c.a. 30 mM. The kinetics of pNPC hydrolysis by CBM3-GH5 and GH5 are compared to see whether the CBM3 domain can influence the catalytic activity of the GH5 domain on a soluble substrate.
(§2) GH5 and CBM3-GH5 (constructs C and E, respectively) are tested to determine the influence of product and ionic strength on CBH activity.

[1] = Enzymatic activity on CMC under different pH and temperature, DNS assay; format: biochemical
Experimental: To determine the optimum conditions for the enzymatic activity of GH5 on CMC under different pH and temperature ranges was measured by DNS assay. The maximum activity is observed at 80° C. and at pH between 4.7 and 5.5; the optimum conditions of the GH5 activity on CMC is at a higher temperature and at a lower pH than the optimum growth conditions of C. sac (70° C., at neutral pH). In addition, Csac GH5 is also active on 4-nitrophenyl β-D-cellobioside, but not active on 4-nitrophenyl β-D-glucopyranoside (up to 1 hr incubation). Therefore, GH5 is a cellobiohydrolase/exoglucanase that produces cellobiose.

[2] = Effect of IL concentration on CBH activity, CMC substrate, DNS; format: biochemical; conditions: EMIM acetate
Experimental: GH5 and CBM3-GH5 (constructs C and E, respectively) are tested to determine the effect of IL concentration on the CBH activity of GH5. Carboxymethyl cellulose (CMC) is used as the substrate for the enzymatic reaction, and the amount of released products containing reducing ends is measured by DNS. The CBH activity remains fairly highly from 0% to more than 20% EMIM acetate. From 25% EMIM acetate the CBH activity starts to decrease and the CBH activity diminished at about 60% EMIM acetate.

[3] = Hydrolysis of pNPC, kinetics by Eadie-Hofstee plots; format: biochemical; conditions: 80° C. and pH 5.5
Experimental: as §1

[4] = Hydrolysis of pNPG (β-glucosidase activity); format: biochemical; conditions: 80° C. and pH 5.5, up to one hour
Experimental: as §1

[5] = Enzyme digestion of solid substrates, products by HPAEC; format: biochemical; conditions: 30 mg substrate, 10 μg protein, 80° C., pH 5.5, 17 hours
Experimental: The effect of CBM3 on the cellobiohydrolase activity on solid substrates by GH5 is tested on Avicel and corn stover. These solid substrates are pretreated with the ionic liquid 1-ethyl-3-methylmidazolium acetate ([C2mim][OAc]). […] Enzyme digestion is performed by mixing 30 mg of substrate and 10 μg of protein in 0.5 mL volume and incubating at 80° C. and pH 5.5 for 17 hours. GH5 and CBM3-GH5 are able to produce more cellobiose and glucose from pre-treated Avicel than untreated Avicel.

[6] = CMCase activity of constructs; format: biochemical
Source text: (§3) CBH is a modular cellulolytic gene from a hyperthermophilic and anaerobic bacterium Caldicellulosiruptor saccharolyticus (C. Sac), which contains the glycoside hydrolase family 10 (GH10), carbohydrate binding module family 3 (CBM3), and glycoside hydrolase family 5 (GH5) domains in a single open reading frame (ORF). We have expressed, purified, and characterized the function of the recombinant GH5 with and without CBM3 domain. The nucleotide sequence of the ORF is codon-optimized and then synthesized for protein expression in E. coli. The translated products contain c-terminal V5 epitope and His (×6) tags from the pDEST42 vector sequence. The recombinant proteins CBM3-GH5 and GH5 are expressed in BL21(DE3)Star E. coli and purified by affinity (HisTrap FF) and ion-exchange (HiTrap Q) chromatography methods. The average yields are 4 mg and 3 mg per liter, respectively.

[7] = CBH (cellobiohydrolase or exoglucanase) activity of constructs; format: biochemical
Source text: as §3

[8] = substrate: O=[N+]([O-])c1ccc(O[C@@H]2O[C@H](CO)[C@@H](O[C@@H]3O[C@H](CO)[C@@H](O)[C@H](O)[C@H]3O)[C@H](O)[C@H]2O)cc1; assay: hydrolysis kinetics of 4-nitrophenyl-β-D-cellobioside (pNPC) by GH5 (Eadie-Hofstee plots); format: biochemical, Caldicellulosiruptor saccharolyticus
Source text: as §3, §1

[9] = Influence of ionic strength (NaCl) on CBH activity; format: biochemical; conditions: 2.3 M NaCl
Experimental: as §2

[10] = substrate: O=[N+]([O-])c1ccc(O[C@@H]2O[C@H](CO)[C@@H](O[C@@H]3O[C@H](CO)[C@@H](O)[C@H](O)[C@H]3O)[C@H](O)[C@H]2O)cc1; assay: hydrolysis kinetics of 4-nitrophenyl-β-D-cellobioside (pNPC) by CBM3-GH5 (Eadie-Hofstee plots); format: biochemical, Caldicellulosiruptor saccharolyticus; conditions: other: pNPC, 80° C., pH 5.5, Eadie-Hofstee plot
Source text: as §3, §1

[11] = other: 80° C., 50 mM MES, pH 5.5 (general description of the enzyme)
[12] = other: pNPC, 80° C., pH 5.5, Eadie-Hofstee plot

Chain of GH5 (A4XIF7 entry or part of it): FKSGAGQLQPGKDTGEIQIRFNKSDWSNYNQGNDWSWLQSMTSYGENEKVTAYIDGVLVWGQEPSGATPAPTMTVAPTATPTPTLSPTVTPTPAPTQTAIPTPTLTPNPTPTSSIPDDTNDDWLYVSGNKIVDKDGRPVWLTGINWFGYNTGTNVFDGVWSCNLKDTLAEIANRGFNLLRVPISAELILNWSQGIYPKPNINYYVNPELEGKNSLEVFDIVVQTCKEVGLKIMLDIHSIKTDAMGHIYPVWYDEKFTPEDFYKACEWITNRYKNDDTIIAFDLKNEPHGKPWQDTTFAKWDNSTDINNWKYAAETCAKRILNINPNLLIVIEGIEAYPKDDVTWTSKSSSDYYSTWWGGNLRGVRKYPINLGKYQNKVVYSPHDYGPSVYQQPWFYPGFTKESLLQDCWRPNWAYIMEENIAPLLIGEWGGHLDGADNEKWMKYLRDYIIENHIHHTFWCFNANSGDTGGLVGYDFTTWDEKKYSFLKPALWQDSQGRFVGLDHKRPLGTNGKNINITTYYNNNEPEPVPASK

IC50 (GH5)	CBH activity (cellobiohydrolase or exoglucanase) [7]	Molecule	Temperature of maximum (optimal) activity [1]	IL concentration up to which the enzyme is active/tolerant [2]	pH of maximum (optimal) activity [1]	Activity on pNPC [3]	Activity on pNPG [4]	IL concentration at which CBH activity diminished [2]	IL concentration from which CBH activity starts to decrease [2]	Sugar released from solid substrates [5]	CMCase activity [6]	Km [8, 11]	Vmax [8, 11]	Km [8, 12]	Vmax [8, 12]	kcat [8, 12]	Residual CBH activity [9]	Km [10]	Vmax [10]	kcat [10]
~30 mM		O=C[C@H](O)[C@@H](O)[C@H](O[C@@H]1O[C@H](CO)[C@@H](O)[C@H](O)[C@H]1O)[C@H](O)CO [cellobiose]																		
		B1	about 80 °C	up to 50%																
	Yes	B2	80 °C	up to 50%	4.7-5.5	active; also recorded: hydrolyzed	not active; also recorded: not hydrolyzed	about 60%	25%	can produce both cellobiose and glucose; also recorded: cellobiose is the predominant sugar released	Yes	2200 µM	0.71 µmol/min/mg	2400 µM	0.62 µmol/min/mg	0.817 s⁻¹				
	Yes	B3				hydrolyzed	not hydrolyzed	about 60%	25%	cellobiose is the predominant sugar released; also recorded: produced more cellobiose than GH5	Yes						at least 80%	2200 µM	0.71 µmol/min/mg	0.767 s⁻¹
